Reference: patent US20120165340

Target: FLAG-HA-PTEN, P60484
Sequence (P60484 whole entry): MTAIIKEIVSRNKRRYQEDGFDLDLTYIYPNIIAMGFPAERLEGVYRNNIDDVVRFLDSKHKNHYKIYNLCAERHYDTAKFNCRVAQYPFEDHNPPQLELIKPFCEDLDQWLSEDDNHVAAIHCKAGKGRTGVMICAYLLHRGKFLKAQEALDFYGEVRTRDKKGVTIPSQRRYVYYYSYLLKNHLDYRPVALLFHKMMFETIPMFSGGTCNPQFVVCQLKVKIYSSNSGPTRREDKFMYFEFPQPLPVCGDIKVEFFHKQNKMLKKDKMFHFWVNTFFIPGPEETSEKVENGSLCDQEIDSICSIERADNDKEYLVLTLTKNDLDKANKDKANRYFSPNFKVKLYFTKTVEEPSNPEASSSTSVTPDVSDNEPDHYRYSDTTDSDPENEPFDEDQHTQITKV

B1: Lyn (protein)
chain: GCIKSKGKDSLSDDGVDLKTQPVRNTERTIYVRDPTSNKQQRPVPESQLLPGQRFQTKDPEEQGDIVVALYPYDGIHPDDLSFKKGEKMKVLEEHGEWWKAKSLLTKKEGFIPSNYVAKLNTLETEEWFFKDITRKDAERQLLAPGNSAGAFLIRESETLKGSFSLSVRDFDPVHGDVIKHYKIRSLDNGGYYISPRITFPCISDMIKHYQKQADGLCRRLEKACISPKPQKPWDKDAWEIPRESIKLVKRLGAGQFGEVWMGYYNNSTKVAVKTLKPGTMSVQAFLEEANLMKTLQHDKLVRLYAVVTREEPIYIITEYMAKGSLLDFLKSDEGGKVLLPKLIDFSAQIAEGMAYIERKNYIHRDLRAANVLVSESLMCKIADFGLARVIEDNEYTAREGAKFPIKWTAPEAINFGCFTIKSDVWSFGILLYEIVTYGKIPYPGRTNADVMTALSQGYRMPRVENCPDELYDIMKMCWKEKAEERPTFDYLQSVLDDFYTATEGQYQQQP
phosphorylation of PTEN on Y240 (Western blot with anti-pY240): Upon co-expression of the Lyn cDNA with PTEN in HEK 293 cells, we observed a robust phosphorylation of PTEN on Y240
phosphorylation of Y240 of PTEN (Western blot, FIG. 15): the phosphorylation of Y240 is much greater in the presence of lyn than when src is expressed with PTEN
